Laboratory results published in PMC8047445.

Experiments:
[1] = molecular target: cHSP27 (isolated alpha-crystallin domain of HSP27) (human) (UniProt P04792); assay: 15N CPMG relaxation dispersion NMR; same data as a2; pB fixed at the value expected from the titration Kd (4.9% WT, 7.2% P182L) and delta R2 allowed to be non-zero
[2] = molecular target: cHSP27 (isolated alpha-crystallin domain of HSP27) (human) (UniProt P04792); assay: 15N CPMG relaxation dispersion NMR; earlier two-state fit of the CPMG RD data, as told in the first response to reviewers; koff = kex(1-pB), kon = kex pB/[L]free
[3] = molecular target: cHSP27 (isolated alpha-crystallin domain of HSP27) (human) (UniProt P04792); assay: NMR titration; 2D 1H-15N HSQC titration of 15N-cHSP27 (oxidised, disulfide-linked dimer) with unlabelled peptide, 25 °C, 30 mM sodium phosphate, 2 mM EDTA, pH 7; two-state 2D lineshape fit with TITAN on fast- and slow-exchange residues; apparent
[4] = molecular target: cHSP27 (isolated alpha-crystallin domain of HSP27) (human) (UniProt P04792); assay: 15N CPMG relaxation dispersion NMR; 2H,15N-cHSP27 1.5 mM with 80 µM WT or 200 µM P182L peptide, 25 °C, 11.7 and 14.1 T; naive two-state fit (delta R2 = 0), kon and koff from pB and kex; apparent
[5] = molecular target: cHSP27 (isolated alpha-crystallin domain of HSP27) (human) (UniProt P04792); assay: NMR titration; earlier TITAN lineshape fit of the HSQC titration, as told in the first response to reviewers
[6] = molecular target: cHSP27, isolated alpha-crystallin domain (ACD) of HSP27, oxidized disulfide-linked dimer (human) (UniProt P04792); assay: NMR titration; 2D 1H-15N HSQC of 15N-cHSP27 (oxidized dimer) with unlabeled peptide, 25 C, 30 mM sodium phosphate, 2 mM EDTA, pH 7; global fit of CSPs of fast-exchange resonances to a two-state model (equation 2)
[7] = molecular target: cHSP27, isolated alpha-crystallin domain (ACD) of HSP27, oxidized disulfide-linked dimer (human) (UniProt P04792); assay: NMR 15N CPMG relaxation dispersion; 2H,15N-cHSP27 (oxidized dimer) 1.5 mM with 80 uM WT peptide or 200 uM P182L peptide, 25 C, 500 and 600 MHz; naive two-state fit
[8] = molecular target: cHSP27, isolated alpha-crystallin domain (ACD) of HSP27, oxidized disulfide-linked dimer (human) (UniProt P04792); assay: NMR titration; same HSQC titration, 25 C; 2D lineshape analysis with TITAN, fast- and slow-exchange residues fitted globally

| Substance | koff [1] | kon [1] | koff [2] | kon [2] | koff [3] | kon [3] | kon [4] | koff [5] | Kd [6] | Kd [7] | koff [7] | pB (percent of cHSP27 bound, by CPMG RD) [7] | Kd [8] |
| --- | --- | --- | --- | --- | --- | --- | --- | --- | --- | --- | --- | --- | --- |
| P182L peptide (C-terminal IxI/V peptide of HSP27 with the CMT mutation P182L) | 547 s⁻¹ | 500000 M⁻¹ s⁻¹ | 840 s⁻¹ | 83000 M⁻¹ s⁻¹ | 771 s⁻¹ | 600000 M⁻¹ s⁻¹ | 73000 M⁻¹ s⁻¹ | 774 s⁻¹ | – | – | – | – | – |
| WT peptide comprising the IxI/V (IPV) motif of the HSP27 C-terminal region | – | – | – | – | – | – | – | – | 124 µM | 1760 µM | 515 s⁻¹ | 2.4% | 132 µM |
| P182L peptide comprising the mutated IxI/V (ILV) motif of the HSP27 C-terminal region | – | – | – | – | – | – | – | – | 1030 µM | 8370 µM | 610 s⁻¹ | 2% | 1280 µM |
| WT peptide (C-terminal IxI/V peptide of HSP27) | 346 s⁻¹ | 2.8e+06 M⁻¹ s⁻¹ | 759 s⁻¹ | 300000 M⁻¹ s⁻¹ | 207 s⁻¹ | 1.6e+06 M⁻¹ s⁻¹ | 290000 M⁻¹ s⁻¹ | – | – | – | – | – | – |
